Experiments:
[1] = target: topoisomerase I from H358 cells (serine-phosphorylated) (human) (UniProt P11387); test: IP/Western analysis, FIG. 5D upper panel lane 5
[2] = target: topoisomerase I from H358 cells (serine-phosphorylated) (human) (UniProt P11387); test: co-immunoprecipitation followed by Western analysis, 48 hours after Adp14 (moi 20 pfu/cell)
[3] = target: topoisomerase I from H358 cells (serine-phosphorylated) (human) (UniProt P11387); test: IP/Western analysis, FIG. 5D upper panel

Chain of topoisomerase I from H358 cells (serine-phosphorylated) (human) (P11387 2-765 limits assumed): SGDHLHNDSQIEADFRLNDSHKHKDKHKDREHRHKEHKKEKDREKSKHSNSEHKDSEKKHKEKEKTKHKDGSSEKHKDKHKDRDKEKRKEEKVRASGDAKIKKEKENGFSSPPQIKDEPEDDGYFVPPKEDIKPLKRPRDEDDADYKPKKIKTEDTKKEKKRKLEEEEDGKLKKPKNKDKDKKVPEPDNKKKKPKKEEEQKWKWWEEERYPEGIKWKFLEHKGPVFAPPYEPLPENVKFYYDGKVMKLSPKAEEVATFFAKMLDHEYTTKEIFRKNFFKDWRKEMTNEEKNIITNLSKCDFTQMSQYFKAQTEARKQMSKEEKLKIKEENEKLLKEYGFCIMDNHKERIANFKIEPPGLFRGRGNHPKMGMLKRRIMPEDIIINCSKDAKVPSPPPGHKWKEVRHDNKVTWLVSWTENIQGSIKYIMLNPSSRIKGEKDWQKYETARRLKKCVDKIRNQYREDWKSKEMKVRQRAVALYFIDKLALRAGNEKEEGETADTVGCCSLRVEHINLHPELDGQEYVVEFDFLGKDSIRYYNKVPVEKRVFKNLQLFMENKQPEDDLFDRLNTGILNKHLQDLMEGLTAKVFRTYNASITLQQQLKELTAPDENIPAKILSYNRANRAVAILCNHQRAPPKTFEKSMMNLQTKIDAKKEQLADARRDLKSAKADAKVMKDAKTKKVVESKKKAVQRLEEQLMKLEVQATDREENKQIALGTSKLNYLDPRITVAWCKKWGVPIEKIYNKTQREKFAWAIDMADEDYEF

p14ARF (ARF), cellular protein in nuclear extracts (endogenous or expressed from the Adp14 adenoviral vector) (from UniProt Q8N726 1-132)
3 fold: fold decrease in ARF/topoisomerase I complex formation in ARF siRNA-treated H358 cells [1] | fold increase of co-immunoprecipitated ARF-topoisomerase I complexes after Adp14 treatment against untreated H358 cells [2] | fold increase in ARF/topoisomerase I complex formation in Adp14-treated H358 cells against Ad1β-treated, control siRNA treated, or non-vector treated cells [3]

— patent US20110136850A1
